From patent US20160194641, “G-RICH isoDNA SEQUENCES FORMING G-QUADRUPLEX STRUCTURE, THEIR FUNCTION AS [sequence] AND A PROCESS FOR THE PREPARATION THEREOF” (COUNCIL OF SCIENTIFIC & INDUSTRIAL RESEARCH, published 2016)

Biological target: thrombin (Bos taurus, UniProt P00735;P00735 P00735:318-366,P00735:367-625)
Experiment: CD titration at 295 nm, low temperature, without K+; signal increases with thrombin; Tm with thrombin 22 C (53 C with K+)
Settings: tags: copies: 1; antiparallel unimolecular G4
Description: CD spectra were recorded on Jasco J-815 CD Spectrometer equipped with a Jasco PTC-424S/15 peltier system. 2 mm path-length quartz cuvettes were used for a sample volume 500 μl and strand concentration of 5 μM in 10 mM Na/K-phosphate buffer (pH 7.5) containing 100 mM NaCl/KCl respectively. Oligomers prepared in buffer were annealed by heating at 95° C. for 5 minutes, then slowly cooled to room temperature, followed by refrigeration for 5-6 hours before use. Spectral scans were collected over a wavelength range 200-320 nm at a scanning rate of 100 nm min⁻¹. The spectra were collected as an average of three scans for each sample.
Biochem. Biophys. Res. Commun. 352, 812-817 (2007). […] An increase in the CD signal amplitude upon incremental addition of thrombin is observed even at relatively low concentrations of thrombin. In case of isod-TBA-2 and isod-TBA-3, CD band at 295 nm and G-quadruplex structure was not evident in the absence of either thrombin or K⁺, which is also supported by ¹H NMR. Upon incremental addition of thrombin, the CD maximum at 295 nm emerges for isod-TBA-2 and isod-TBA-3. […] Further, the temperature-dependent stability of the quadruplex structure was followed by recording the CD amplitude at 295 nm with increasing temperature. The strength of d-TBA-1 G-quadruplex was the highest with Tₘ=22° C., followed by iso-d-TBA-3 (Tₘ 13° C.) and iso-d-TBA-2 (Tₘ<10° C.). […]

B1: d-TBA-1 (structured_DNA)
DNA: GGTTGGTGTGGTTGG
- binding result: binds
